From the supplement of paper PMC9170038

Tested on: K4 kissing-loop RNA reporter
Assay: apparent KD of K4 kissing-loop reporter; higher = weaker reporter binding
Conditions: Eterna round: R107
Method: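 RNA-MaP round R107: designed RNA switches with theophylline, tryptophan, arginine or FMN aptamers are transcribed on-chip within common flanks. They are titrated with a labelled K4 kissing-loop RNA reporter in RNA-MaP buffer (100 mM Tris pH 7.5, 80 mM KCl, 4 mM MgCl2), without ligand or with the indicated ligand. Median apparent KD per design.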

[1] = input ligand: theophylline 20 uM
[2] = input ligand: tryptophan 2.4 mM
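Note: bound reporter read as fluorescence of individual clusters on recovered sequencing chips by microscopy, with normalized cluster intensities fitted with a binding model.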

Sequence | apparent KD of K4 kissing-loop reporter (input ligand: FMN 200 uM) [µM] | apparent KD of K4 kissing-loop reporter (input ligand: arginine 13.2 mM) [µM] | apparent KD of K4 kissing-loop reporter (input ligand: none) [µM] | apparent KD of K4 kissing-loop reporter [1] [µM] | apparent KD of K4 kissing-loop reporter [2] [µM]
AGGCACGAGCAAGGAUAUCGAGUAGAGUGAUGUUCUGCCUGGGUUGGCCCGAAAGGGCCUUCCCAGCGAGAAGGUGCUCGUGCCU [#2 Same State - FMN A Attempt #9 (HarryS)] | 0.222 | 0.588 | 0.766 | 0.492 | 0.863
UCGGCAAAGUCGGCCGCCACUCCGGGCCCUAUAAAUGGGCGCAGUGAUGUUGCGGCUAGGCCUCUGAGGACCGGGACUUUGUAAA [Atordied] | 0.185 | 0.0631 | 0.0545 | 0.0617 | 0.219
UUACAGGAACAAGGAUAUGGCGUUGUAGUGAUGUUACAGCGAAGAGCUCCACGCGAUCGGACAAAACCAGAAGGUGUAUGGAAUC [theeternabot_exclusion_KL_FMN_B_42] | 0.155 | 0.108 | 0.127 | 0.116 | 0.112
GGAUCCACCAGUGAUGUUGGAGAAAACUCCAAGGAUAUGACGAAAGUCAGAAGGUGGUAAUAAGACGUCAAAGACGUCGGAUCCA [FmnA 19 #SwitchBubble #K4Early] | 1.4 | 0.149 | 0.101 | 0.323 | 0.15
CUGCAAAAGUCGGCCGCCACUCCGGGCCCUAUAAAUGGGCGCAGUGAUGUUGCGGCUAGGCCUCUGAGGACCGGGACUUUGUAAC [Aratan] | 0.19 | 0.0647 | 0.087 | 0.131 | 0.218
AGUACGGUGCCGUUCAGAUCAACGUAUGAUACCAGCUCGUAUAUUAGCCCUUGGCAGCAUCCGAGUGAUGUUCGGAUUGUGCCAC [theeternabot_exclusion_KL_Theo_A_45] | 0.113 | 0.098 | 0.102 | 0.0935 | 0.102
GUUACGCAUGGAAGGAGCGCUCUCAGGCUUAAUAACACAGUGAUGUUGUGAAUUUGCCUAAAGCAGGUAGGUCGCCAUGUGUAAC [Ex Arginine B K4 9] | 0.426 | 0.4 | 0.44 | 0.423 | 0.392
AGAACUGUCUGAGAUACCAGCCAAGGAGUGAUGUUCCGGCUCGACGAAACGUCGAGCCAUGGCCCUUGGCAGCUCAGACAGUUCA [Omei KL Theo B SS A v2] | 0.249 | 0.116 | 0.195 | 0.191 | 0.102
UUAAUAAUUCAAGGAUAUGUUUUUUUUUUCGAGUGAUGUUCGGAAUUAAUAAAUUUAAAAGAUUAUACAGAAGGUGAUAAAUAGU [Cynwulf-mod#1] | 0.103 | 0.091 | 0.0883 | 0.103 | 0.0886
UGAUAGGACAGAAGGAGCGGAAGUGAUGUUUCCAAAAGGGUAAGGUGUCAAAAGACACCCUUCCAGGUAGGUCGCUGUCCUAUCU | 0.0939 | 0.109 | 0.099 | 0.111 | 0.0863
GGUUUUAACCGCAGUGAUGUUGCGUUGAAACGAGGACCGGUACGGCCGCCACUCGAAAAGAAGCGGCCAAAUUAAAAUCGUAAAG [Exclusion Tryptophan A GF 23] | 0.129 | 0.162 | 0.144 | 0.164 | 0.114
GGUGUUGUUUGUGCUGUUUUCUUCGUUUCUCGAGGACCGGUACGGCCGCCACUCGAGUGAUGUUUGGGUAGCGAUGUUUGUUAGU [Bdazzled - #3 - Exc. Tryptophan A] | 0.473 | 0.287 | 0.373 | 0.36 | 0.47
AGGUGCUACGGAAGGAGCGCACCAGUGAUGUUGGUGUGUGACCGUGACAUGGCAGUCAAGGUGCAGGUAGGUCGCCGUGGCCUUU [Geeseris] | 0.137 | 0.108 | 0.131 | 0.138 | 0.136
AAGCAGUCGCUCGAAGCCAUCGAAGAUGGGCGAGGACCGGUACGGCCGCCACUCGGAGUGAUGUUCCGAGGACUGCAAAAUAAAA [MatMod 5 - Jieux - Exclusion - Tryptophan A] | 0.418 | 0.246 | 0.321 | 0.263 | 0.409
ACGUGCCCAGUGAUGUUGGAUAAAUAUGAAGGAGCGUGCGAAAGCACAGGUAGGUCGCAUAAUAGCACGAGCCACGAAAGUGGCA [#SwitchBubble 7 #K4Early #Sliding] | 0.179 | 0.2 | 0.181 | 0.245 | 0.134
GCGCAUGUUAAAGGAUAUAGCAGGUGAUACAAGAAAGUGAGUGAUGUUUAUGUAGAUGAUGAUAUGUUAGAAGGUUAACAAGCGC [abcdefghijklmnop] | 0.693 | 0.639 | 0.842 | 0.788 | 0.6
GCAGUGAUGUUGCGAAUCGGCCAUGAUACAGAGGAUAUCGUGCCUUCGAGAAGGUUGUAUAGAGGAUACGAUAUUAUAAAUGACG [Same State FMN A GF 1] | 0.353 | 0.384 | 0.432 | 0.436 | 0.348
CAUCACGCAAUCACGGAUGCAAGCAUUGAUACCAGAACCGAUUAUUUCCCUUGGCAGCAACACGGAGUGAUGUUCCUAGCAUAUA [theeternabot_sameState_KL_Theo_A_21] | 0.0712 | 0.122 | 0.094 | 0.209 | 0.0755
AACGCUUGAAUAACAAGCGAAAUAAAUUCGCGAGGACCGGUACGGCCGCCACUCGCUAACUGCGAGUGAUGUUCGAUAAUAAAAU [Mat - Mod of OpenEnded 3 - D15] | 0.103 | 0.0661 | 0.136 | 0.234 | 0.071
GCCGUACGCAUGGAUACCAGCAAUCAAACGUCAUGCGAAGUGAUGUUUCGCUUACGGUAGUGCCCUUGGCAGCCAUGCGUACGGC | 0.142 | 0.124 | 0.123 | 0.0912 | 0.13
AAAUUUAAUAUAUUUAAUUAAUUAUGUGAUACCAGACAUUAAUAAGUCCCUUGGCAGCACAAUGCAGUGAUGUUGCAUAUAAUAA [JR_SSTheophyA_Sub011] | 0.0694 | 0.115 | 0.0735 | 0.0848 | 0.0654
AAUGUACAGGGAAGGAGCGUCGUCCAGUGAUGUUGGAGUUAAAUACCAGUGAUGUUGGUUAGGCAGGUAGGUCGCCCUAAAGUAG [#09 K4 Arginine B Exclusion] | 0.102 | 0.0714 | 0.0801 | 0.0865 | 0.0821
